The values below come from patent publication US8912148B2, “Methods of treating a disease or condition associated with abnormal angiogenesis” (Covx Technology Ireland, Ltd., priority 2006, dated 2014).

Starred links: 1 amine or outer side, 2 acyl side, 3 side chain; linkers in the order of their positions; H or OH if unused. Non-standard residues stand in square brackets, D forms with d. No end group written: not given here. Phe(4-COOH) = N[C@@H](Cc1ccc(C(=O)O)cc1)C(=O)O; AcK = CC(=O)NCCCC[C@H](N[*:1])C(=O)[*:2]; 0P = not defined here

The target in experiment [1] is T1, human angiopoietin-2 protein (Homo sapiens, UniProt O15123).
T1 construct: purchased R&D Systems
T1 sequence (O15123 19-496): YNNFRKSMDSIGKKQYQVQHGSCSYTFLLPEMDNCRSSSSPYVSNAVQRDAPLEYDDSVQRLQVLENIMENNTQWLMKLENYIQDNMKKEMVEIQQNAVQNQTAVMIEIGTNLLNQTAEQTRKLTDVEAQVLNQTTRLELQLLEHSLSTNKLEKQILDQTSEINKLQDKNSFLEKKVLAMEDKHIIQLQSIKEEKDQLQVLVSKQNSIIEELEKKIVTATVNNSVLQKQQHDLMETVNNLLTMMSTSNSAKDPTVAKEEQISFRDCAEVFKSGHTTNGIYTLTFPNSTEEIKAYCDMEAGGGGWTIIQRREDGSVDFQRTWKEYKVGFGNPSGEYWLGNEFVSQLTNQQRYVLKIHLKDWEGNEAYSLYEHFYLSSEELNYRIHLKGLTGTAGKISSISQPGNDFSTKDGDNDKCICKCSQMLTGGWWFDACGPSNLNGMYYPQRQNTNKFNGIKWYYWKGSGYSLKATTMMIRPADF
The experiment can be described thus: Competitive ELISA: inhibition of Ang-2-Tie-2 binding, plates coated with Ang-2 (Table 7). As to the method: The ability of Ang-2 binding compounds to interact with Ang-2 was measured by competition with Tie-2.
For competitive ELISA, human angiopoietin-2 protein and Tie-2-Fc (R&D Systems) were reconstituted without carrier protein. Mouse anti-human Tie-2 (Pharmingen) was used as the primary antibody and goat anti-mouse-IgG1-HRP (Pierce) was used as the secondary antibody. TMB substrate from Pierce was used.
High-binding half-well plates were coated with Ang-2 (100 ng/well) in 50 μl PBS and incubated at 4° C. overnight. Plates were washed three times with washing buffer (0.1% Tween 20, PBS, pH 7.4) and blocked with Superblock (Scytek), 100 μl/well at room temperature (“RT”) for 1 hour. After removing the blocking solution, 50 μl of an Ang-2 binding peptide compound (1 uM and 5× serial dilution) in the presence of 0.25 nM hTie-2-Fc using Superblock as diluent was added and incubated at RT for 2 hours. Plates were washed 3 times with washing buffer. Then, 50 ul of 0.1 ug/ml mouse anti-human Tie-2 diluted in Superblock added and incubated at RT for 1 hour. Following incubation, 50 ul of 1:5,000 dilution of goat anti-mouse IgG-HRP in Superblock was then added and incubated at RT for one hour. After washing 3 times, 50 μl (25 μl TMB+25 μl H2O2) was added, and incubated for 3-5 minutes. Color development was monitored and stopped with 25 μl of 2 M H2SO4. OD450 nm with a correction wavelength of 540 nm was measured.
In Table 7, compounds of SEQ ID NOs: 21-23 are Ang-2 binding peptides alone, not conjugated to either a linker or linker-antibody; compounds of SEQ ID NOs:65 and 66 are Ang-2 binding peptides conjugated to a linker-antibody, where the linker is 4P (“4” PEG) and has the structure of the linker shown in FIG. 2; and compounds 26-63 are Ang-2 binding peptides conjugated to a linker-antibody, where the linker is OP (“O” PEG) and has the structure of the linker shown in FIG. 3. Compounds 24-63 were conjugated to humanized aldolase antibody h38c2 and the linker structures shown in FIG. 2 (4P) and FIG. 3 (OP) when obtainng the data shown below, except where otherwise indicated.
In Table 7, amino acid sequences of peptide compounds are shown with the position of linker OP or 4P indicated in parentheses following the internal amino acid residue to which the linker is attached. For compound of SEQ ID NO:67, the N-terminal “OP” linker is indicated at the beginning of the peptide sequence.
Background: In an ELISA, binding on a coated surface is turned into a signal by an enzyme label.

In a further experiment the target is T2, Recombinant human Ang-2 (Homo sapiens, UniProt O15123).
T2 sequence (O15123 19-496): T1 sequence (O15123 19-496)
The experiment can be described thus: Truncation study: competition with compound 43 linked to linker and h38c2 for binding to coated Ang-2 (Table 9). As to conditions: competition with compound 43-linker-h38c2 at 10 ng/mL, read-out: Ang-2 T IC50. As to the method:
Recombinant human Ang-2 was coated on microtiter plates at 0.5 μg/mL in 100 μL, overnight at 2-8° C. Plates were washed between all steps and all subsequent incubations occurred at room temperature. Plates were blocked with 250 μL per well of SuperBlock for 1-3 hours. Test compounds were pre-mixed with compound 43 linked to linker (as shown in FIG. 3) and h38c2 at 10 ng/mL. Peptide mixtures in 100 μL were then added at the listed final concentrations, the plates sealed, and incubated for 1-2 hours. Bound compound 43 was detected with 100 μL of a 1:20,000 dilution of HRP-labeled anti-human IgG reagent for 1-2 hours. Finally, 100 μL TMB substrate was added for 10 minutes and the reaction stopped with 100 μL of 2 NH2SO4 stop solution.

In the next experiment the test system is Co10205 cells. Nature of the experiment: Xenograft studies: subcutaneous tumor growth in nude mice, % T/C (Table 10). The format is in vivo. As to the method: Co10205 cells were cultured with 10% FBS RPMI medium and 3×10^6 cells in 0.1 ml Hank's balanced salt solution (HBSS) were injected subcutaneously into the upper right flank of nude mice. After 7-9 days, animals were randomized into appropriate number of groups with average tumor size of 200-300 mm^3. Mice were then treated with the requisite amount of compounds of the invention and tumor volumes were measured twice a week. Animals were terminated once their average tumor volume reached 2000 mm^3. Upon termination, tumors were weighed and saved for further histological studies. Treatment efficacy was evaluated by measuring the difference in the tumor volumes of treated versus control groups. Results are reported as % T/C, where % T/C was calculated as: % T/C=(Vt−V0)/(Ct−C0)×100, where, V0 and Vt were the average tumor volumes of treated groups at the beginning and termination of the group. CO and Ct were the average tumor volumes of the control group at the beginning and termination of the group (Table 10).

The target of experiment [2] is T1, human angiopoietin-2 protein. Nature of the experiment: Reverse competition ELISA: inhibition of Ang-2-Tie-2 binding, plates coated with Tie-2-Fc (Table 8). The conditions noted are these: reverse competitive ELISA; peptide linked to antibody h38c2 via 0P linker. As to the method:
For reverse competition ELISA, human Tie-2-Fc, angiopoietin-2 protein, biotinylated anti-human Ang-2 antibody, and streptavidin HRP(R&D Systems) and TMB substrate from Pierce were used.
High-binding half-well plates were coated with Tie-2-Fc (50 ng/well) in 50 μl PBS and incubated at 4° C. overnight. Plates were washed three times with washing buffer (0.1% Tween 20, PBS, pH 7.4) and blocked with Superblock, 150 μl/well at RT for 1 hour. Plates were washed three times. Following washing, 50 μl of an Ang-2 binding peptide compound (50 nM, 5× serial dilution) in the presence of 50 ng/ml (0.83 nM) Ang-2 in Superblock were added and incubated at RT for 1 hour. Plates were washed 3 times, 50 μl of 1 μg/mlbiotinylated anti-Ang-2 detection antibody in Superblock was added and incubated at RT for 2 hours. Plates were washed 3 times, and 50 μl of streptavidin HRP (1:200 dilution in Superblock) was added at RT for 20 minutes. Plates were washed 3 times, and 50 μl (25 μl TMB+25 μl H2O2) substrate solution was added and incubated for 20-30 minutes. Color development was stopped with 25 μl of 2 M H2SO4. OD450 nm with a correction wavelength of 540 nm was measured.
IC50 values are provided for the targeting peptide plus linker (as shown in FIG. 3) and the targeting peptide linked to an antibody (P) via the linker of FIG. 3, unless otherwise specified.

[3] abbreviates: P = targeting peptide linked to antibody h38c2 via the linker, read-out: Ang-2 P IC50.
Where [4] appears, read: T = targeting peptide plus linker (compounds 21-23: peptide alone), read-out: Ang-2 T IC50.

What is called IC50 is the point on the concentration scale where inhibition reaches its midpoint. “25: "compounds of SEQ ID NOs:65 and 66 are Ang-2 binding peptides conjugated to a linker-antibody, where the linker is 4P (“4” PEG)" (QNYQPLDELDXTLYDQFMLQQG; 4P PEG linker conjugated to antibody; Anti-angiogenic peptide) [Compound 25]”: in experiment [1] (setting [3]), the IC50 was 40.5 nM.

For the substance “31 (Q[AcK]YQPLDELDETK(0P)YDQFMLQQG; reading uncertain; also: printed as Q(AcK)Y QPL DEL DET K(0P)YD QFM LQQ G) [Compound 31]”, the IC50 was more than 1000 nM in experiment [1] (setting [3]) and more than 5000 nM in experiment [1] (setting [4]).

With “33 (Q[AcK]YQPLDEK(0P)DETLYDQFMLQQG; reading uncertain) [Compound 33]”, the IC50 in experiment [1] (setting [3]) is 88.8 nM.

Consider “35 (QXYQXLDELDXTLYDQFMLQQG; AcK; hydroxyproline; K(0P); Anti-angiogenic peptide) [Compound 35]”, for which the IC50 in experiment [1] (setting [3]) came out at 16.7 nM.

As to “36 (QXYQPLDELDXTIYDQFMLQQG; AcK; K(0P) modified lysine; Anti-angiogenic peptide) [Compound 36]”, the IC50 in experiment [1] (setting [3]) was determined as 153 nM.

Consider “37 (QXYQPLDEIDXTLYDQFMLQQG; AcK; K(0P) modified lysine; Anti-angiogenic peptide) [Compound 37]”, for which the IC50 in experiment [1] (setting [3]) was 80 nM.

With “38 (QXYQPLDELDXTXYDQFMLQQG; not fully specified; AcK; K(0P); homocyclohexylalanine; Anti-angiogenic peptide) [Compound 38]”, the IC50 in experiment [1] (setting [3]) is 703 nM; in experiment [1] (setting [4]), more than 5000 nM.

In the case of “39 (QXYQPLDELDXTXYDQFMLQQG; AcK; K(0P); homophenylalanine; Anti-angiogenic peptide) [Compound 39]”, in experiment [1] (setting [3]), the IC50 stood at 258 nM.

Regarding “40 (QXYQPLDELDXTXYDQFMLQQG; AcK; K(0P); thienylalanine; Anti-angiogenic peptide) [Compound 40]”, the IC50 in experiment [1] (setting [3]) was 358 nM; in experiment [1] (setting [4]), more than 5000 nM.

For the substance “59 (QRYQPLDELDXTLYDQFMLQQG; K(0P) modified lysine; Anti-angiogenic peptide) [Compound 59]”, the IC50 in experiment [1] (setting [3]) is 16.1 nM.

Regarding “60 (QHYQPLDELDXTLYDQFMLQQG; not fully specified; K(0P) modified lysine; Anti-angiogenic peptide) [Compound 60]”, the IC50 in experiment [1] (setting [3]) was found to be 14.4 nM.

Take “62 (Q[AcK]YQPLDE[AcK]DK(0P)TL[Phe(4-COOH)]DQFMLQQG; not fully specified (C-terminus); reading uncertain; also: 0P linker on K11, antibody h38c2 conjugate or reactive form) [Compound 62]”: the IC50 in experiment [1] (setting [3]) is 41.3 nM.

As for “87 (Ac-[AcK]YQPLDE[AcK]DK(0P)TLYDQFMLQQG-NH2; reading uncertain; also: 0P linker on K10, reactive end group for antibody) [Compound 87]”, the IC50 in the experiment with Recombinant human Ang-2 was more than 4 µM.

Consider “88 (Ac-YQPLDE[AcK]DK(0P)TLYDQFMLQQG-NH2; reading uncertain; also: 0P linker on K9, reactive end group for antibody) [Compound 88]”, for which the IC50 with Recombinant human Ang-2 is more than 4 µM.

Turning to “89 (Ac-QPLDE[AcK]DK(0P)TLYDQFMLQQG-NH2; reading uncertain; also: 0P linker on K8, reactive end group for antibody) [Compound 89]”, the IC50 in the experiment with Recombinant human Ang-2 was more than 4 µM.

For “90 (Ac-PLDEK(Ac)DK(0P)TLYDQFMLQQG-NH2; reading uncertain; also: 0P linker on K7, reactive end group for antibody) [Compound 90]”, the IC50 with Recombinant human Ang-2 is more than 4 µM.

With “(Amido 2-PEG)QAcKY QPL DEL DK(OP)T LYD QFMLQQ G (QXYQPLDELDXTLYDQFMLQQG; amido-2-PEG cap; acetyl-lysine; OP linker at K11; Anti-angiogenic peptide) [Compound 52]”, the IC50 in experiment [1] (setting [3]) was found to be 18.1 nM.

Regarding “QAcKY QPL DEL DK(4P)T LYD QFM LQQ G (QXYQPLDELDXTLYDQFMLQQG; not fully specified; acetyl-lysine; 4P PEG linker to antibody at K11; Anti-angiogenic peptide) [Compound 24, "the second amino acid residue is epsilon acyl lysine ... the linking position (in this case a 4P linker) is the lysine residue 11"]”, in experiment [1] (setting [3]), the IC50 was found to be 17.4 nM.

In the case of “R^1-QNY QPL DEL DKT LYD QFM LQQ G-R^2 (QNYQPLDELDKTLYDQFMLQQG; also: variable termini R1, R2) [Compound 28]”, the “% TC 3 mg/kg 1×/wk” value in the experiment with Co10205 cells (3 mg/kg 1×/wk) came to 34%. For the same substance, in the experiment on Co10205 cells (10 mg/kg 1×/wk), the “% TC 10 mg/kg 1×/wk” value is 38%. Moreover, the IC50 in experiment [1] (setting [3]) was determined as 28.6 nM; in experiment [1] (setting [4]), 175 nM; in experiment [2], 0.15 nM.
